Measurements as given in publication PMC4128088 (Structure (London, England : 1993), 2014).

Biological target: the molecule itself
Test: SAXS

B1: Human Presequence Protease E107Q (hPreP E107Q) (enzyme, UniProt Q5JRX3 34-1037, looked up)
chain: CERALQYKLGDKIHGFTVNQVTSVPELFLTAVKLTHDDTGARYLHLAREDTNNLFSVQFRTTPMDSTGVPHILQHTVLCGSQKYPCRDPFFKMLNRSLSTFMNAFTASDYTLYPFSTQNPKDFQNLLSVYLDATFFPCLRELDFWQEGWRLEHENPSDPQTPLVFKGVVFNEMKGAFTDNERIFSQHLQNRLLPDHTYSVVSGGDPLCIPELTWEQLKQFHATHYHPSNARFFTYGNFPLEQHLKQIHEEALSKFQKIEPSTVVPAQTPWDKPREFQITCGPDSFATDPSKQTTISVSFLLPDITDTFEAFTLSLLSSLLTSGPNSPFYKALIESGLGTDFSPDVGYNGYTREAYFSVGLQGIAEKDIETVRSLIDRTIDEVVEKGFEDDRIEALLHKIEIQMKHQSTSFGLMLTSYIASCWNHDGDPVELLKLGNQLAKFRQCLQENPKFLQEKVKQYFKNNQHKLTLSMRPDDKYHEKQAQVEATKLKQKVEALSPGDRQQIYEKGLELRSQQSKPQDASCLPALKVSDIEPTIPVTELDVVLTAGDIPVQYCAQPTNGMVYFRAFSSLNTLPEELRPYVPLFCSVLTKLGCGLLDYREQAQQIELKTGGMSASPHVLPDDSHMDTYEQGVLFSSLCLDRNLPDMMQLWSEIFNNPCFEEEEHFKVLVKMTAQELANGIPDSGHLYASIRAGRTLTPAGDLQETFSGMDQVRLMKRIAEMTDIKPILRKLPRIKKHLLNGDNMRCSVNATPQQMPQTEKAVEDFLRSIGRSKKERRPVRPHTVEKPVPSSSGGDAHVPHGSQVIRKLVMEPTFKPWQMKTHFLMPFPVNYVGECIRTVPYTDPDHASLKILARLMTAKFLHTEIREKGGAYGGGAKLSHNGIFTLYSYRDPNTIETLQSFGKAVDWAKSGKFTQQDIDEAKLSVFSTVDAPVAPSDKGMDHFLYGLSDEMKQAHREQLFAVSHDKLLAVSDRYLGTGKSTHGLAILGPENPKIAKDPSWIIQ
stoichiometry N: 2
